Assay [1] addresses T1, glucose-regulated protein (GRP78) (Homo sapiens, UniProt P11021 19-654).
T1 construct: Endogenous GRP78: on the membrane of human umbilical vein endothelial cells (HUVEC) or tumor cell lines in FACS and cell ELISA; from HUVEC lysate in the immunoprecipitation and Western blot experiments; also called GRP78 receptor; ADOPeps receptor
Briefly: cell ELISA on endothelial cells, peptide 2 hours, then competitor anti-GRP78 antibody at 2 ug/ml. The procedure: Endothelial cells were incubated for 2 hours with increasing concentrations of ADOPeps, following which the cells were incubated for another 1 hour with the 2 μg/ml of anti-GRP78 antibody and the amount of bound antibody on EC was detected using an ELISA reader.
Endothelial cells (20,000 per well) were seeded in 96 well plates for 24 hours in the presence of the complete medium. Plates were washed with PBS over night and rehydrated with PBS, 0.1% Na Azide and 5% FCS. ADOPep1, ADOPep2 and ADOPep3 were added to washed plates for 2 hours at room temperature at concentrations of 0.01, 0.1 and 1 microgram per ml. Anti-GRP78 antibody (goat polyclona IgG, Santa Cruz Biotechnology, Calif., USA) was added to the plates for 1 hour at room temperature at a concentration of 2 micrograms/ml per well. After washing, bound anti-GRP78 antibody was detected by incubation with anti-goat IgG Peroxidase conjugated (Jackson Immuneresearch Laboratories, PA, USA). After 5 washes with PBS-0.1% Tween 20, 100 μl/well of TMB+ Substrate-Chromogen (DAKOCytomation, CA, USA) was added for a maximum of 30 minutes. Reaction was stopped with 1N HCl. Color developed was determined by an ELISA reader at 450 nm.
In general terms: An ELISA detects its analyte on a solid surface through an enzyme-linked reagent.

Assay [2] deals with T1, glucose-regulated protein (GRP78). Put plainly: endothelial cells, normoxia, peptide at 0.01, 0.1 or 1 ng/ml for 2 hours, then competitor biotinylated ADOPep1 at 2 ug/ml, HRP-streptavidin. The procedure: Endothelial cells were incubated for 2 hours under normoxia conditions in the presence of increasing concentrations (0.01, 0.1 or 1 ng/ml) of peptides having the amino acid sequences corresponding to Motif A (HWRRP; SEQ ID NO:7), Motif B (HWRRA; SEQ ID NO:8), Motif C (AHLLP; SEQ ID NO:6) or non-biotinylated ADOPep1 (SEQ ID NO:2) and then were incubated for 1 hour with biotinylated ADOPep1 (2 μg/ml) and the binding of biotinylated ADOPep1 to endothelial cells was determined using HRP-streptavidin.

T1 sequence (P11021 19-654 limits assumed): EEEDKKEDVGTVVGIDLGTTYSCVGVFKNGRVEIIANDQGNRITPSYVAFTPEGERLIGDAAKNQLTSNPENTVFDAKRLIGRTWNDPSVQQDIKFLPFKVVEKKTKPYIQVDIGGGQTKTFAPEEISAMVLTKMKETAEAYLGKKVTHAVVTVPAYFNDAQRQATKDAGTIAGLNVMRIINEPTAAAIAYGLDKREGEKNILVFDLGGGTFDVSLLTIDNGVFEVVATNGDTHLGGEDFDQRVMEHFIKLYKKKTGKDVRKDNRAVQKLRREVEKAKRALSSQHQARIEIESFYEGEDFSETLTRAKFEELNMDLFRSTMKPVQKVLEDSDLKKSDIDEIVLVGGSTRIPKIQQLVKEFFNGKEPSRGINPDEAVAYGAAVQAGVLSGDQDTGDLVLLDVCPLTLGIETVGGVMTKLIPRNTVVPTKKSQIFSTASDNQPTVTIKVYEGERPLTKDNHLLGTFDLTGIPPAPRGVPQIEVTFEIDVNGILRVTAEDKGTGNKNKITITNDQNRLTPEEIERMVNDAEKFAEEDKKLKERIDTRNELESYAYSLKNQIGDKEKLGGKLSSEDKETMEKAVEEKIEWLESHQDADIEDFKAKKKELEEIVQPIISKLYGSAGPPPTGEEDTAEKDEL

B1: ADOPep1 (peptide)
peptide: HWRRAHLLPRLP
notes: Unlabelled synthetic peptide (SynPep); also called non-biotinylated ADOPep1
Turning to B1, in assay [1], the “percent inhibition of binding of anti-GRP78 antibody” value is not above 50%.
The same measure, in the same setting: as for AVTLENFLHWRR [ADOPep3], the figure is not above 50%.
Take ENFLHWRRAHLL [ADOPep2]: the “percent inhibition of binding of anti-GRP78 antibody” value in assay [1] is not above 50%.
HWRRA (also called peptide motif B) [Motif B peptide (HWRRA)]: in assay [2], the binding result is given as “binds”.

The record behind these values is patent US20120219498A1 (RAMOT AT TEL AVIV UNIVERSITY, published 2012).
